Blank lines part the entries; values can stand above or below the binder they belong to.
Target: T1, recombinant murine CD73 protein (form not stated) (murine) (UniProt Q61503)
T1 sequence (looked up): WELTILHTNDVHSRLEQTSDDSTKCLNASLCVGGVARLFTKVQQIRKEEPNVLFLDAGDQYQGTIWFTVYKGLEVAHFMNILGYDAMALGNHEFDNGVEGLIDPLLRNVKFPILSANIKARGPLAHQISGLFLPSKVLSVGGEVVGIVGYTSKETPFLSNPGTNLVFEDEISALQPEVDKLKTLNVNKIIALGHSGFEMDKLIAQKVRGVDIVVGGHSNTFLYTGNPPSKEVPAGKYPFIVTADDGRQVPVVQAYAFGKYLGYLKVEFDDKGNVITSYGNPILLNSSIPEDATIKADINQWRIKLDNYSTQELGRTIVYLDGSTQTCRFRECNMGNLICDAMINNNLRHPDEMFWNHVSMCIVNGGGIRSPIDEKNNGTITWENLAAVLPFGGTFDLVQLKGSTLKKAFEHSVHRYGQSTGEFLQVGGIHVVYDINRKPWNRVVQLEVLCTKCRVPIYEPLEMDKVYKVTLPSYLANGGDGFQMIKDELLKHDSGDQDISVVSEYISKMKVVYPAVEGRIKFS
Assay: Binding, Mouse; assay not described

- 1/EC50: 0 nM⁻¹
B1: CD730047 antibody (antibody, IgG1, V domains shown)
VH: EVQLVQSGGGVVQPGRSLRLSCAASGFTFSSYGMHWVRQAPGKGLEWVAVISYDGSIKYYADSVKGRFAISRDNAKNTLYLQMNSLRREDTAMYYCASGLTGVAGALGVWGRGTLVTVSS
VL: QSVLTQPPSASGAPGQRVTISCSGSSSNIGSNTVNWYQRLPGAAPQLLIYNNDQRPSGIPDRFSGSKSGTSGSLVISGLQSEDEADYYCAAWDDSLSGNVFGTGTKVTVL

- 1/EC50: 0 nM⁻¹
B2: CD730042 antibody (antibody, IgG1, V domains shown)
VH: GVQLVQSGGGLVQPGGSLRLSCAASGFTFSSYGMHWVRQAPGKGLEWVAVISYDGSIKYYADSVKGRFTISRDDSKNALYLQMNSLRAEDTAVYYCSTLSGSYGYFDYWGRGTLVTVSS
VL: QSVLTQPASVSGSPGQSITISCAGTSSDVGGYNYVSWYQQHPGKAPKLMIYEGSKRPSGVSNRFSGSKSGNTASLTISGLQAEDEADYYCSSYTTRSTRVFGGGTKLTVL

Source: US20160194407A1
